These results are taken from patent US20220160939A1, “SELF-ASSEMBLING PEPTIDES AS BRONCHIAL OBSTRUCTION AGENTS” (3-D MATRIX, LTD., priority 2014, published 2022).

Where no end group is shown, it is not given here.

Common to all, as to assay type: physicochemical
The nature of data set [1]: pH and appearance of 2.5% peptide solutions after adding 0.1 N NaOH. Here is the method:
To adjust the pH level of the peptide solutions by way of example, 0.1 N NaOH was added to 2 mL of 2.5% peptide solutions and their pH and appearance were measured.

A short description of data set [2]: Rheological properties of pH adjusted peptide solutions. The note with it: for rheological properties of solutions at pH 3.4: pH adjusted vs not adjusted, KLD12 1%, IEIK13 1%, PuraMatrix 1% and 2.5%. Here is the method:
Based on the visual observation of the effect of pH level on the properties of the peptide solutions, the effect on the rheological properties of the peptide solutions after adjusting their pH level to 3.4 (PuraMatrix® (SEQ ID NO:1) and KLD12 (SEQ ID NO:3)) or 3.7 (IEIK13 (SEQ ID NO:2)) was evaluated. If the pH levels of peptide solutions are higher than 3.5 (PuraMatrix® (SEQ ID NO:1) and KLD12 (SEQ ID NO:3)) or 3.7 (IEIK13 (SEQ ID NO:2)), the peptide solution began phase separation becoming cloudy. The rheological properties of PuraMatrix® (SEQ ID NO:1), KLD12 (SEQ ID NO:3) and IEIK13 (SEQ ID NO:2) solutions were higher at pH 3.4. The results are shown in FIG. 2 for KLD12 (SEQ ID NO:3) 1%, FIG. 3 for IEIK13 (SEQ ID NO:2) 1%, and FIGS. 4-5 for PuraMatrix® (SEQ ID NO:1) 1% and 2.5%, respectively. Stress sweep tests were performed at 10 rad/s. Frequency sweep tests were performed at 1 Pa.
Based on the results of the effect on the rheological properties of the peptide solutions after adjusting their pH level to 3.4 (PuraMatrix® (SEQ ID NO:1) and KLD12 (SEQ ID NO:3)) or 3.7 (IEIK13 (SEQ ID NO:2)), the effect on the rheological properties of the peptide solutions at various pH levels was evaluated. […] The rheological properties of peptides were evaluated at various concentrations using a rheometer (DHR-1, TA Instruments) with 20 mm plates. The results are shown in FIG. 6A for PuraMatrix® (SEQ ID NO:1) 2.5% solution and FIG. 6B for IEIK13 (SEQ ID NO:2) 1.5% solution, respectively. Frequency sweep tests were performed from 1 rad/sec to 10 rad/sec at 1 Pa and the storage modulus at 1 rad/sec was selected for data.

A short description of data set [3]: Gelation of peptide solutions after saline buffer treatment, time sweep test. The note with it: saline buffer (0.15 M of NaCl), no pH change; IEIK13 1.5%, KLD12 1.5%, PuraMatrix 2.5%. Here is the method: The effect of salt ionic strength level surrounding peptides in solution on the properties of peptide solutions was evaluated to identify the possibility of peptide gelation when the peptide solution is placed into the environment where salt ionic strength level is high. […] Without pH effect, the effect of saline treatment on gelation of peptide solutions were evaluated. […] This is because IEIK13 (SEQ ID NO:2) is much more sensitive to salt ionic strength levels. Fast gelation of IEIK13 (SEQ ID NO:2) at the salt ionic strength level similar to body fluid isotonic salt level may generally improve its function and gelation speed for various clinical applications. The results are shown in FIG. 19 for IEIK13 (SEQ ID NO:2), KLD12 (SEQ ID NO:3) and PuraMatrix® (SEQ ID NO:1) solutions. Time sweep tests were performed at 1 rad/sec and at 1 Pa with 20 mm plates and 500 μm gap distance. […]

Data set [4] in a line: Salt ionic strength plus pH adjustment: appearance and rheological properties. Particulars: for appearance of peptide solutions: 0.9% NaCl (ionic strength: 0.15 M) at pH 3.4 adjusted with NaOH. From the text:
In accordance with one or more embodiments, IEIK13 (SEQ ID NO:2), KLD12 (SEQ ID NO:3), and PuraMatrix® (SEQ ID NO:1) may be dissolved both in salt buffer such as NaCl and at an elevated pH level adjusted with alkali salt buffer such as NaOH to keep their salt ionic strength under their critical salt points as well as their pH level to about 2.5˜4.0, so that they may have stiffer properties. With respect to PuraMatrix® (SEQ ID NO:1), […] and IEIK13 (SEQ ID NO:2), the peptide solutions are still clear with 0.9% NaCl (ionic strength: 0.15 M) at pH 3.4 adjusted with NaOH. The rheological property of PuraMatrix® (SEQ ID NO:1) with 0.9% NaCl (ionic strength: 0.15 M) at pH 3.4 was stiffer than those of PuraMatrix® (SEQ ID NO:1) control and PuraMatrix® (SEQ ID NO:1) with only NaCl 0.9%. The effect of salt ionic strength and pH adjustment on the rheological properties of PuraMatrix® (SEQ ID NO:1) 2.5% solution are shown in FIG. 20. Frequency sweep tests were performed from 1 rad/sec to 10 rad/sec at 1 Pa and the storage modulus at 1 rad/sec was selected for data.

Where [5] appears, read: 0.1N NaOH 150 μL/mL added in 2.5% solution, conc. 2.17%.
Where [6] appears, read: 0.1N NaOH 200 μL/mL added in 2.5% solution, conc. 2.08%.
[7] abbreviates: 0.1N NaOH 250 μL/mL added in 2.5% solution, conc. 2.0%.
Where [8] appears, read: 0.1N NaOH 275 μL/mL added in 2.5% solution, conc. 1.96%.
Where [9] appears, read: 0.1N NaOH 300 μL/mL added in 2.5% solution, conc. 1.92%.
The mark [10] stands for this setting: 0.1N NaOH 350 μL/mL added in 2.5% solution, conc. 1.85%.
The mark [11] stands for this setting: NaOH volume and conc. not given.
[12] abbreviates: peptide solution pH 7.0, NaOH volume and conc. not given.

In the case of “Arg-Ala-Asp-Ala-Arg-Ala-Asp-Ala-Arg-Ala-Asp-Ala-Arg-Ala-Asp-Ala [PuraMatrix ®]”, the Appearance result is given as “Clear, thick, stiffer gel” in data set [1] (setting [5]); “Clear, thick, stiffer gel” in data set [1] (setting [6]); “Clear, thick, stiffer gel” in data set [1] (setting [7]); “Clear, thick, stiffer gel” in data set [1] (setting [8]); “Slightly cloudy, brittle gel” in data set [1] (setting [9]); “Cloudy, phase-separated” in data set [1] (setting [10]). Further, the Appearance entry in data set [1] (setting [12]) is given as “Cloudy, phase-separated”. Moreover, the “Peptide solution pH” value in data set [1] (setting [11]) is recorded as 7.0. Also, in data set [2], the “rheological properties of solutions at pH 3.4” value (shortened to “rheological properties”) is “higher”. The “gelation after saline buffer treatment” value in data set [3] was “no or negligible gelation”. In addition, the “appearance of peptide solutions” value in data set [4] was “still clear”. Also, in data set [4] (2.5% solution, 0.9% NaCl (ionic strength: 0.15 M) at pH 3.4), the “rheological property versus control and versus only NaCl 0.9%” value is recorded as “stiffer”.

As to “Ile-Glu-Ile-Lys-Ile-Glu-Ile-Lys-Ile-Glu-Ile-Lys-Ile [IEIK13]”, the Appearance entry in data set [1] (setting [5]) is “Clear, thick gel, stiffer gel”; in data set [1] (setting [6]), “Clear, thick gel, stiffer gel”; in data set [1] (setting [7]), “Clear, thick gel, stiffer gel”; in data set [1] (setting [8]), “Clear, thick, stiffer gel”; in data set [1] (setting [9]), “Slightly cloudy, brittle gel”; in data set [1] (0.1N NaOH 400 μL/mL added in 2.5% solution, conc. 1.79%), “Cloudy, phase-separated”. In addition, in data set [1] (setting [12]), the Appearance result was “Cloudy, phase-separated”. Further, the “Peptide solution pH” value in data set [1] (setting [11]) worked out at 7.0. The “pH level above which the peptide solution began phase separation becoming cloudy” value in data set [2] is on record as > 3.7. The “rheological properties” value in data set [2] is “higher”. For the same substance, the “gelation after saline buffer treatment” value in data set [3] is given as “fast gelation”. In addition, in data set [4], the “appearance of peptide solutions” value was “still clear”.

For KLDLKLDLKLDL [KLD12], the Appearance result in data set [1] (setting [5]) is “Clear, thick and stiffer gel”; in data set [1] (setting [6]) it was “Clear, thick and stiffer gel”; in data set [1] (0.1N NaOH 225 μL/mL added in 2.5% solution, conc. 2.04%) it was “Clear, thick and stiffer gel”; in data set [1] (setting [7]) it was “Slightly cloudy, brittle gel”; in data set [1] (setting [10]), “Cloudy, phase-separated”; in data set [1] (setting [12]) it was “Cloudy, phase-separated”. Besides, the “Peptide solution pH” value in data set [1] (setting [11]) was determined as 7.0. Also, in data set [2], the “rheological properties” value is recorded as “higher”. For the same substance, the “gelation after saline buffer treatment” value in data set [3] is “no or negligible gelation”. Further, the “appearance of peptide solutions” value in data set [4] is “still clear”.
